Changes are numbered by the printed parent chain.
B1: single-labelled SecYEG(Bpy) (complex)
chain 1: MAKQPGLDFQSAKGGLGELKRRLLFVIGALIVFRIGSFIPIPGIDAAVLAKLLEQQRGTIIEMFNMFSGGALSRASIFALGIMPYICASIIIQLLTVVHPTLAEIKKEGESGRRKISQYTRYGTLVLAIFQSIGIATGLPNMPGMQGLVINPGFAFYFTAVVSLVTGTMFLMWLGEQITERGIGNGISIIIFAGIVAGLPPAIAHTIEQARQGDLHFLVLLLVAVLVFAVTFFVVFVERGQRRIVVNYAKRQQGRRVYAAQSTHLPLKVNMAGVIPAIFASSIILFPATIASWFGGGTGWNWLTTISLYLQPGQPLYVLLYASAIIFFCFFYTALVFNPRETADNLKKSGAFVPGIRPGEQTAKYIDKVMTRLTLVGALYITFICLIPEFMRDAMKVPFYFGGTSLLIVVVVIMDFMAQVQTLMMSSQYESALKKANLKGYGR
chain 2: MSANTEAQGSGRGLEAMKWVVVVALLLVAIVGNYLYRDIMLPLRALAVVILIAAAGGVALLTTKGKATVAFAREARTEVRKVIWPTRQETLHTTLIVAAVTAVMSLILWGLDGILVRLVSFITGLRF
chain 3: MYEALLVVFLIVAIGLVGLIMLQQGKGADMGASFGAGASATLFGSSGSGNFMTRMTALLATLFFIISLVLGNINSNKTNKGSEWENLSAPAKTEQTQPAAPAKPTSDIPN
modifications: BODIPY FL (maleimide derivative) on Cys87
B2: double-labelled SecYEG(Bpy/Trp) (complex)
chain 1: B1 chain 1 with F286W
chain 2: B1 chain 2
chain 3: B1 chain 3
modifications: BODIPY FL (maleimide derivative) on Cys87

Columns and labels:
[1] = target: vacant 70S ribosomes from E. coli MRE600 (E. coli); test: FRET; 4°C; 70S labelled at L23 with MDCC
[2] = target: vacant 70S ribosomes from E. coli MRE600 (E. coli); test: FRET; 25°C; 70S labelled at L23 with MDCC
[3] = target: Lep75-RNC (ribosome-nascent-chain complex carrying 75 N-terminal amino acids of leader peptidase) (E. coli | , UniProt P00803 1-75, f[3H]Met at the N-terminus; nascent chain bound to tRNA); test: 25°C
[4] = target: vacant 70S ribosomes from E. coli MRE600 (E. coli); test: 25°C

| Binder | Kd [1] [nM] | Kd [2] [nM] | Kd [3] [nM] | Kd [4] [nM] |
| --- | --- | --- | --- | --- |
| B1 | 10 | 20 |  |  |
| B2 |  |  | 10 | 20 |
